The results in this text go back to patent publication US10729634B2, “Sex hormone-binding globulin for use as a medicament” (FUNDACIÓ HOSPITAL UNIVERSITARI VALL D'HEBRON—INSTITUT DE …, priority 2013, dated 2020).

Assay [1] has as its system human SHBG transgenic mice (shbg). Kind of assay: High fructose diet in human SHBG transgenic mice vs wild-type. The assay is classed as in vivo. The note with it: high fructose diet (76% fructose) for 8 weeks, shbg vs WT mice. The text has this:
For this experiment there were used C57BL/6 mice (WT, controls) and human SHBG transgenic mice (shbg) but not obese.
SHBG transgenic mice were obtained as disclosed above and according to Jänne et al, “Human Sex-Hormone-Binding Globulin Gen Expression in Transgenic Mice”, Molecular Endocrinology—1998, Vol. No. 12 (1), pp: 123-136 (supra).
Wild-type (WT) mice and shbg mice were fed with a high fructose diet. (76% fructose) for 8 weeks. Afterwards, they were sacrificed and liver biopsies were analyzed to see total triglyceride (TG) accumulation in both animal types.
Total triglyceride detection was measured using a triglyceride assay kit (Cat. #K622-100 BioVision) following the manufacturer's instructions.
As in Example 3.4 and following the same protocol, lipogenesis was studied by determining the mRNA and protein levels of acetyl-CoA carboxylase (ACC) and fatty acid synthase (FAS). Data from this analysis are illustrated in FIG. 18, panels (C) and (D).

For the next assay, the system named is HepG2 cells. Kind of assay: SHBG over-expression (pCMV-SHBG) in stably transfected HepG2 cells. It counts as cell-based, human. Particulars: SHBG over-expressed (pCMV-SHBG) vs pCMV control. The source says:
In order to elucidate a possible mechanism of action of the SHBG, HepG2 cells (catalog no. HB-8065; ATCC) maintained in DMEM supplemented with 10% FBS and antibiotics) were stably transfected with a vector expressing SHBG (pCMV-SHBG). The vector pCMV-SHBG and the control (pCMV-empty) were the ones used and mentioned in several publications, being the first in Bocchinfuso W P et al. “Expression and differential glycosylation of human sex hormone-binding globulin by mammalian cell lines”, Mol Endocrinol-1991, Vol. No. 5(11)., pp. 1723-1729.
From all panels in FIG. 20 it can be deduced that SHBG regulates hepatocyte lipid content by modulating ACC levels in HepG2 cells. (a) SHBG mRNA levels were determined in relation to 18S RNA in pCMV and pCMV-SHBG stably transfected HepG2 cells (FIG. 20 a). SHBG protein accumulation in the medium was measured using an ELISA in pCMV and pCMV-SHBG stably transfected HepG2 cells (FIG. 20 b). ACC mRNA levels were determined in relation to 18S mRNA in pCMV and pCMV-SHBG stably transfected HepG2 cells (FIG. 20 c). SHBG mRNA levels were determined in relation to 18S RNA in shControl and shSHBG stably transfected HepG2 cells (FIG. 20 d). SHBG protein accumulation in the medium was measured using an ELISA in shControl and shSHBG stably transfected HepG2 cells (FIG. 20 e). […]

B1: SHBG: native human protein purified from healthy human serums (included SEQ ID NO: 1); in mice and HepG2 expressed from human shbg transgene/vector (protein, listed as Homo sapiens)
chain: MESRGPLATSRLLLLLLLLLLRHTRQGWALRPVLPTQSAHDPPAVHLSNGPGQEPIAVMTFDLTKITKTSSSFEVRTWDPEGVIFYGDTNPKDDWFMLGLRDGRPEIQLHNHWAQLTVGAGPRLDDGRWHQVEVKMEGDSVLLEVDGEEVLRLRQVSGPLTSKRHPIMRIALGGLLFPASNLRLPLVPALDGCLRRDSWLDKQAEISASAPTSLRSCDVESNPGIFLPPGTQAEFNLRDIPQPHAEPWAFSLDLGLKQAAGSGHLLALGTPENPSWLSLHLQDQKVVLSSGSGPGLDLPLVLGLPLQLKLSMSRVVLSQGSKMKALALPPLGLAPLLNLWAKPQGRLFLGALPGEDSSTSFCLNGLWAQGQRLDVDQALNRSHEIWTHSCPQSPGNGTDASH
For B1, in assay [1], the fatty liver disease result was “Protects Against Fatty Liver Disease” and the “triglyceride amount in liver” value is listed as “higher in WT mice than in the transgenic ones (shbg)”. Further, in the assay on HepG2 cells, the ACC expression entry is “the expression of ACC is reduced” and the “total TG content” value is “the total TG is reduced”.
